This is an account of results in patent US7662583B2, “Bioreactor containing cells expressing glycosyltransferase nucleic acids isolatable from Arabidopsis” (The University of York, priority 2003, dated 2010).

Data set [1] can be described thus: Solubility of quercetin under buffer conditions used. The format is physicochemical. To be noted: buffer conditions used in the fermenter. The method, then:
In order to explore the potential of the whole-cell biocatalysts for large-scale production of glucosides in the absence of added UDP-glucose, transformed bacterial cells were cultured in a fermenter. This process enabled conditions to be controlled tightly throughout the production cycle and a direct comparison to be made of the efficiency of conversion of whole-cell UGT biocatalysis in a simple culture flask and an optimised fermenter system. UGT73B3 was chosen for the analysis, since preliminary experiments (Table 2) had shown formation of a single product, the 3-O-glucoside, at levels of 8.96 μg/ml following 24 h incubation. […] The Figure also illustrates the final level of glucoside was much higher than the soluble aglycone at time 0 h.

A short description of data set [2]: UGT enzyme reaction with quercetin (recombinant UGTs, HPLC). The format is biochemical, Arabidopsis. The settings on record: 0.5 mM quercetin, 5 mM UDP-glucose, 30° C. The method, boiled down:
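Recombinant Arabidopsis UGTs (2 μg) incubated with 0.5 mM quercetin and 5 mM UDP-glucose in 100 mM Tris-HCl pH 7.0 at 30 °C for 1 h. Quercetin glucosides separated from aglycone by reverse-phase C18 HPLC (acetonitrile gradient, 0.1% TFA), detected at 370 nm.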

Data set [3] in a line: Whole-cell biocatalyst assay, E. coli expressing UGT in culture medium. The class given is cell-based. The settings on record: E. coli, 2x YT medium, 0.1 mM IPTG, 0.1 mM quercetin, 24 h, no added UDP-glucose. As to the method: FIG. 14 Whole-cell biocatalyst assay using UGT71C1. E. coli cells expressing recombinant were used in the biocatalyst assay. After incubation with 0.1 mM quercetin and 0.1 mM IPTG, cells were collected by centrifugation, extracted with 80% methanol and both the cell extracts (pellet) and culture medium (supernatant) were analysed using HPLC. (A) Changes in the combined amounts of aglycone/glucoside over a time-course of 0-48 h. (B) Changes in the level of different glucosides and aglycone in the culture medium over the same time-course.
Using the foundation established in the preceding example, we went on to investigate the potential of E. coli expressing plant UGTs as whole-cell biocatalysts to synthesise glucosides of quercetin. In the first instance, we used E. coli grown in 75 ml of standard culture medium. […] Table 2 describes results in which 7 different UGTs are expressed in E. coli and the identity and quantity of different glucosides recovered in the medium were analysed by HPLC. […] There was considerable variation in the level of different glucosides synthesised by the cells, although even under these non-optimised conditions, each of the four monoglucosides and two di-O-glucosides could be formed.

The nature of data set [4]: Whole-cell bioreactor assay in fermentor system. The format is cell-based, E. coli. The method, then:
A 6 L glass autoclavable fermentor system (Applikon Biotechnology Ltd.) was used for large-scale analysis of UGT whole-cell biocatalysts. E. coli BL21 overnight culture (40 ml) expressing UGT was transferred into the fermentor system containing 2 L of LB medium previously equilibrated at 30° C., pH 7.4. The dissolved O2 level was maintained at 95% for 1 h and was decreased to 60% throughout the remaining process. When the culture reached an optical density at 0.2, the temperature was lowered to 20° C. 0.1 mM of isopropyl-1-thio-β-D-galactopyranoside and 2 g of quercetin were added after the bacterial culture reached an optical density at 0.6. Samples were harvested at intervals and the bacterial cells were removed by centrifugation. The resulting supernatant fractions (culture medium) were analysed with HPLC.
In order to explore the potential of the whole-cell biocatalysts for large-scale production of glucosides in the absence of added UDP-glucose, transformed bacterial cells were cultured in a fermenter. This process enabled conditions to be controlled tightly throughout the production cycle and a direct comparison to be made of the efficiency of conversion of whole-cell UGT biocatalysis in a simple culture flask and an optimised fermenter system. […]

Regarding `O=c1c(O)c(-c2ccc(O)c(O)c2)oc2cc(O)cc(O)c12` [Quercetin, quercetin], the solubility result in data set [1] is listed as “relatively insoluble”.

B1: UGT73B3: Arabidopsis recombinant glycosyltransferase (protein, UniProt Q8W491 1-481, looked up)
UDP-glycosyltransferase 73B3: MSSDPHRKLHVVFFPFMAYGHMIPTLDMAKLFSSRGAKSTILTTPLNSKIFQKPIERFKNLNPSFEIDIQIFDFPCVDLGLPEGCENVDFFTSNNNDDRQYLTLKFFKSTRFFKDQLEKLLETTRPDCLIADMFFPWATEAAEKFNVPRLVFHGTGYFSLCSEYCIRVHNPQNIVASRYEPFVIPDLPGNIVITQEQIADRDEESEMGKFMIEVKESDVKSSGVIVNSFYELEPDYADFYKSVVLKRAWHIGPLSVYNRGFEEKAERGKKASINEVECLKWLDSKKPDSVIYISFGSVACFKNEQLFEIAAGLETSGANFIWVVRKNIGIEKEEWLPEGFEERVKGKGMIIRGWAPQVLILDHQATCGFVTHCGWNSLLEGVAAGLPMVTWPVAAEQFYNEKLVTQVLRTGVSVGAKKNVRTTGDFISREKVVKAVREVLVGEEADERRERAKKLAEMAKAAVEGGSSFNDLNSFIEEFTS
On to B1, for which the “Specific activity (nkat/mg protein) 3-O-glc” value in data set [2] (quercetin glucosylated at 3-OH) turned out to be 1.57 nkat/mg protein. Besides, the “Specific activity (nkat/mg protein) 3′-O-glc” value in data set [2] (quercetin glucosylated at 3′-OH) was “— (Activity lower than 0.02 nkat/mg protein has been considered as trace activity and is not shown in the Table.)”. Further, the “Specific activity (nkat/mg protein) 4′-O-glc” value in data set [2] (quercetin glucosylated at 4′-OH) is “— (Activity lower than 0.02 nkat/mg protein has been considered as trace activity and is not shown in the Table.)”. For the same molecule, the “Specific activity (nkat/mg protein) 7-O-glc” value in data set [2] (quercetin glucosylated at 7-OH) was “— (Activity lower than 0.02 nkat/mg protein has been considered as trace activity and is not shown in the Table.)”. Also, the “Culture medium (μg/ml in supernatant) 3-O-glc” value in data set [3] turned out to be 8.96 µg/mL. Also, the “yield of 3-O-glucoside, fermenter versus culture flask” value in data set [4] (99.3 μg/ml at 20 h versus 8.96 μg/ml at 24 h) amounted to 10 fold. Further, the “yield of 3-O-glucoside in the culture” value in data set [4] (fermenter system, 20 h) was found to be 99.3 µg/mL.
